Assay results published in publication PMC10353856.

What was measured:
[1] = molecular target: T1, PRC2 5-mer MT (RNA-binding mutant EZH2) (UniProt Q15910;Q15022;O75530;Q09028;Q6ZN18 1-746;1-739;1-441;1-425;1-517, F32A;R34A;D36A;K39A;P489N;R490A;K491A;K492I;K493R;R494S); assay: EMSA
[2] = molecular target: PRC2 5-mer WT (EZH2-SUZ12-EED-RBBP4-AEBP2) (UniProt Q15910;Q15022;O75530;Q09028;Q6ZN18 1-746;1-739;1-441;1-425;1-517); assay: EMSA
[3] = molecular target: T1, PRC2 5-mer MT (RNA-binding mutant EZH2); assay: fluorescence anisotropy
[4] = molecular target: PRC2 4-mer MT (RNA-binding mutant EZH2) (UniProt Q15910;Q15022;O75530;Q09028 1-746;1-739;1-441;1-425, F32A;R34A;D36A;K39A;P489N;R490A;K491A;K492I;K493R;R494S); assay: fluorescence anisotropy
PRC2 4-mer MT (RNA-binding mutant EZH2), sequence (Q15910 whole entry F32A/R34A/D36A/K39A/P489N/R490A/K491A/K492I/K493R/R494S, chain 1 of 4): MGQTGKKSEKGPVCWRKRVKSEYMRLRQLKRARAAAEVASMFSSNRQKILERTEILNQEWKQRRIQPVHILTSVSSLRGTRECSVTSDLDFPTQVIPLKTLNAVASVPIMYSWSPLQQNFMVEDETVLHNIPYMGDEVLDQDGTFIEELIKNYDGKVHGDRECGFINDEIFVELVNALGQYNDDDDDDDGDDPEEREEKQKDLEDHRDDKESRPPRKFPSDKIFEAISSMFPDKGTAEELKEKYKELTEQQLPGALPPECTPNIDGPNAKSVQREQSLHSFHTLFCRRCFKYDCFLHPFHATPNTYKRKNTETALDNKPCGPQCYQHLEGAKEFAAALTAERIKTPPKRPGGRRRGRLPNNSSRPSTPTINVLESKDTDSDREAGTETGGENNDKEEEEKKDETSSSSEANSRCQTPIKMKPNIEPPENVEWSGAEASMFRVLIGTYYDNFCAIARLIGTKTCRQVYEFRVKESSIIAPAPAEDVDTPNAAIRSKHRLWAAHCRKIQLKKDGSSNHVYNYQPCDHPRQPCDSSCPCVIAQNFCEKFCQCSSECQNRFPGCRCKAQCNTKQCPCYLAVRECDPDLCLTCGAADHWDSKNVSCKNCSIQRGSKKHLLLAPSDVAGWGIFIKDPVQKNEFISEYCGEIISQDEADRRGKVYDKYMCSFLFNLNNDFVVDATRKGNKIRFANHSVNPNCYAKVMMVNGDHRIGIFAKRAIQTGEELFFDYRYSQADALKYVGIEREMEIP
PRC2 4-mer MT (RNA-binding mutant EZH2), sequence (Q15022 whole entry, stated change not applied, chain 2 of 4): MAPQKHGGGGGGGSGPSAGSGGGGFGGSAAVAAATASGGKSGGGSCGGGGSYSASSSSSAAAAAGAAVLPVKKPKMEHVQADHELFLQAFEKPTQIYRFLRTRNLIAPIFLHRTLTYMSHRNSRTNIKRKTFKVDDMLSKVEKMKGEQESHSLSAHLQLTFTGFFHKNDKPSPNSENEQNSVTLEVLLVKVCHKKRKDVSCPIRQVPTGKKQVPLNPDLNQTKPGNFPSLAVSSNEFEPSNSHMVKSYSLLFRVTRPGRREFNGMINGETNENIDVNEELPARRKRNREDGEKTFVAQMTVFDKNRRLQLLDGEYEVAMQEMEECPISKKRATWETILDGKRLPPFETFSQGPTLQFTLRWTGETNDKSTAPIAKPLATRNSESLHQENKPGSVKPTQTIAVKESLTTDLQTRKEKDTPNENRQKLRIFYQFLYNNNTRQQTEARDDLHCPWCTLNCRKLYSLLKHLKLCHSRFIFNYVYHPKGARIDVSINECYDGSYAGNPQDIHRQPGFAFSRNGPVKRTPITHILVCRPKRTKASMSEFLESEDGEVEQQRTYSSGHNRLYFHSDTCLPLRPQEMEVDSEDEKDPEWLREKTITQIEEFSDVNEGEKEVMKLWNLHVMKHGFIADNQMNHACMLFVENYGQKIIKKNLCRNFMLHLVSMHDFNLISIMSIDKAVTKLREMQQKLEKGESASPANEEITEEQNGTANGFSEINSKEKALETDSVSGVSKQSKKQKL
PRC2 4-mer MT (RNA-binding mutant EZH2), sequence (O75530 whole entry, stated change not applied, chain 3 of 4): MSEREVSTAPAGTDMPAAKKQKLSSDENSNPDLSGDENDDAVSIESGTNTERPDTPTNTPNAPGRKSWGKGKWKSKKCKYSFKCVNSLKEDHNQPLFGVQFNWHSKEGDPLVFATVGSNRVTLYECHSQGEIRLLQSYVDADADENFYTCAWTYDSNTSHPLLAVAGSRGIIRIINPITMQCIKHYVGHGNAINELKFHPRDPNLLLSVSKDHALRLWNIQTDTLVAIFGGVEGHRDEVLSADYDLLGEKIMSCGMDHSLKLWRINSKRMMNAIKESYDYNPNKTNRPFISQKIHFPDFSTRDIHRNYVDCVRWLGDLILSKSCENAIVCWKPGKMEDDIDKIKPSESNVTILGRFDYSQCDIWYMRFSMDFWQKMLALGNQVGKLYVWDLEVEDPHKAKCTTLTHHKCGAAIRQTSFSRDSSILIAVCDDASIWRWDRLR
PRC2 4-mer MT (RNA-binding mutant EZH2), sequence (Q09028 whole entry, stated change not applied, chain 4 of 4): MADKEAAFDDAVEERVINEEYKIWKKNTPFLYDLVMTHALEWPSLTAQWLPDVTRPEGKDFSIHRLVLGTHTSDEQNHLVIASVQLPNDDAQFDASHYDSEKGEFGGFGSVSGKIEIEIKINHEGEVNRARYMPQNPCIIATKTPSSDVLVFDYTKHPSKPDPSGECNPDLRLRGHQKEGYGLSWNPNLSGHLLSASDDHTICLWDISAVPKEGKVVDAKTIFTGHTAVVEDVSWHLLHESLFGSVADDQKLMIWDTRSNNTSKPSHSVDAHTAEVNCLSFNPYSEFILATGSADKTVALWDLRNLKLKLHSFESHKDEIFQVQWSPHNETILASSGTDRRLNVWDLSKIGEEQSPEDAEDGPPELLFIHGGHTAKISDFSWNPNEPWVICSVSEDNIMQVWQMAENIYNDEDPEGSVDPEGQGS

| Binder | Kd [1] [nM] | Kd [2] [nM] | binding signal [3] [fold koff increase vs WT] | binding signal [4] [fold koff increase vs WT] |
| --- | --- | --- | --- | --- |
| GGAAGGAAGGAAGGAAGGAAGGAAGGAAGGAAGGAAGGAA (structured_RNA) [(GGAA)10 G4 RNA 40-mer] | 12 | 2 | – | – |
| GGAAGGAAGGAAGGAAGGAAGGAAGGAAGGAAGGAAGGAA (structured_RNA) [Alexa 488-(GGAA)10 RNA] | – | – | 30 | 8 |
